Drawing on patent US7371376, this text covers % apoptosis of BT474 cell population (Hoechst 33342 cell cycle analysis, 3 days), proportion of S-phase cells (BT474, 3 days) and Kd for one substance.

Assay [1] has as its target human ErbB2 receptor on BT474 human breast tumor cells (human) (UniProt P04626). As to the kind of experiment: cell-based or functional assay.
The target is the same in assay [2]. As to the kind of experiment: Scatchard analysis, 125I-antibody on BT474 cell monolayers, on ice.

For the substance “anti-ErbB2 IgG1κ murine monoclonal antibody 4D5 (ATCC CRL 10463)”, in assay [1], the % apoptosis of BT474 cell population (Hoechst 33342 cell cycle analysis, 3 days) was 41.9% and the proportion of S-phase cells (BT474, 3 days) worked out at 5.4%. Further, in assay [2], the dissociation constant Kd (commonly the free concentration of one partner at which half of the binding sites on the other are occupied at equilibrium, for simple one-to-one binding) amounted to 6.5 nM.
